Data on one substance can be found in PMC7519303.

This assay has as its target SgmX-Strep (C-terminal Strep-tagged SgmX variant) (M. xanthus). Nature of the assay: SDS/PAGE of the purified protein; purified SgmX-Strep; band of ~233 kDa, heat- and detergent-resistant dimer.

One may read the stoichiometry N as the number of molecules, sites or subunits per partner or assembly. On to “SgmX-Strep (C-terminal Strep-tagged SgmX variant) (natural protein)”, for which the stoichiometry N amounted to 2.
